According to the supplement of paper PMC10065799, “High-throughput profiling of sequence recognition by tyrosine kinases and SH2 domains using bacterial peptide display” (eLife, 2023):

Experiments:
c-Src SH2 = assay: SH2 binding enrichment of the phosphorylated peptide, bacterial display (enrichment ratio); higher = better substrate or ligand; peptides without Tyr show the background
Grb2 SH2 = Grb2 SH2 (UniProt P62993); assay: as above
SHP2-C SH2 = assay: as above
MERTK = MERTK (UniProt Q12866); assay: phosphorylation enrichment, bacterial display (enrichment ratio); higher = better substrate or ligand; peptides without Tyr show the background
Sequence of MERTK (Q12866 whole entry, looked up): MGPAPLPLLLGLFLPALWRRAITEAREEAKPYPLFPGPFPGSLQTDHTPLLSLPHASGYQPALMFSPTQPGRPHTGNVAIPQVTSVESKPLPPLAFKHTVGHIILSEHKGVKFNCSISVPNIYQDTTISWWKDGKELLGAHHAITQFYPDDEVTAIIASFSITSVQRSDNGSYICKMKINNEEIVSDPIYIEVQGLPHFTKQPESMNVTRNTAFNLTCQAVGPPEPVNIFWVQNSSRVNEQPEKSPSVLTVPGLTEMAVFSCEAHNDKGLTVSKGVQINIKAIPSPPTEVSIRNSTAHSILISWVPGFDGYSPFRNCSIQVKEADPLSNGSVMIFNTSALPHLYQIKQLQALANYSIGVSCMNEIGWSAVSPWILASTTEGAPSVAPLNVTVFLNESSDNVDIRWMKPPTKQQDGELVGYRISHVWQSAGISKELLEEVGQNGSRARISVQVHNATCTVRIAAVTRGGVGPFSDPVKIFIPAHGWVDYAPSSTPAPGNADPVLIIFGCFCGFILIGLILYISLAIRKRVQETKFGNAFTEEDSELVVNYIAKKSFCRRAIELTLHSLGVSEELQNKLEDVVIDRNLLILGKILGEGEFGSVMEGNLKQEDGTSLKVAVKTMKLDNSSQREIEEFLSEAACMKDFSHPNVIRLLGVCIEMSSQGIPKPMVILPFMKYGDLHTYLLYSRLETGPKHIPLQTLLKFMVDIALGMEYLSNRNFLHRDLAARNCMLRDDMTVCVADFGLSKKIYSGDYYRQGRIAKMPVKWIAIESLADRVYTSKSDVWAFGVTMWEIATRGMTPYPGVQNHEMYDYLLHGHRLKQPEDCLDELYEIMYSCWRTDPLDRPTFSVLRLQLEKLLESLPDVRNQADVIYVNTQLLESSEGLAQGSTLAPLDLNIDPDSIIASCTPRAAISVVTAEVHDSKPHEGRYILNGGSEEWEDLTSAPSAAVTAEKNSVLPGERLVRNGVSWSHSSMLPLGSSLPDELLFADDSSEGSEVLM

AncSZ = assay: as above
Jak2 = Jak2 (UniProt O60674); assay: as above
FGFR3 = FGFR3 (UniProt P22607); assay: as above
Hck = Hck (UniProt P08631); assay: as above
Sequence of Hck (P08631 whole entry, looked up): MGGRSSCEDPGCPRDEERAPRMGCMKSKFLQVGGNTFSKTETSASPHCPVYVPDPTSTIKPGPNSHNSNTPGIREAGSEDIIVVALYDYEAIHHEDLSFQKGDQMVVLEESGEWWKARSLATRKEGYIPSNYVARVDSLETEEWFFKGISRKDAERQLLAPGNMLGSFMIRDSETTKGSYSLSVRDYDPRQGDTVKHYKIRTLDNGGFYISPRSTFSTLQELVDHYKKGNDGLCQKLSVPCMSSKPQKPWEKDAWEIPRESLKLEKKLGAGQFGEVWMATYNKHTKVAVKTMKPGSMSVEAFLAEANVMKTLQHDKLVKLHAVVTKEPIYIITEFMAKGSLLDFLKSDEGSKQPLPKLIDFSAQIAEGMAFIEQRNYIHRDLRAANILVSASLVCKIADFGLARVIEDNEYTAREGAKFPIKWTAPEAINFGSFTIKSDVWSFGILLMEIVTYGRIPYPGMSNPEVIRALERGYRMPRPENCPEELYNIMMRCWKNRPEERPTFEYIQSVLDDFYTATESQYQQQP

Fyn = Fyn (UniProt P06241); assay: as above
Sequence of Fyn (P06241 whole entry, looked up): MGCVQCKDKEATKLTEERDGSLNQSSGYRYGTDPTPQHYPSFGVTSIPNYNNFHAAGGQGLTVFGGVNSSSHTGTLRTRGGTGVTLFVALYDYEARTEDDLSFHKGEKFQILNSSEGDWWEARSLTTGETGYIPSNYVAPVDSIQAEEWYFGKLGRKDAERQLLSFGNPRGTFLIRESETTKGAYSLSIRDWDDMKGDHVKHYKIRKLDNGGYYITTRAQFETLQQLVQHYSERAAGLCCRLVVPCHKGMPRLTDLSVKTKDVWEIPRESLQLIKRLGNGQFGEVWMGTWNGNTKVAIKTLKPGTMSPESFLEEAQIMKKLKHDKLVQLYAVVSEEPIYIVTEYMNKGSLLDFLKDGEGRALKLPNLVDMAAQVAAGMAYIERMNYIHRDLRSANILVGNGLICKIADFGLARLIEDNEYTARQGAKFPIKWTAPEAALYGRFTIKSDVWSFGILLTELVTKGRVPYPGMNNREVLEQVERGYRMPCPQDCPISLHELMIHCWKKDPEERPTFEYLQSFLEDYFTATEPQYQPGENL

FGFR1 = FGFR1 (UniProt P11362); assay: as above
Sequence of FGFR1 (P11362 whole entry, looked up): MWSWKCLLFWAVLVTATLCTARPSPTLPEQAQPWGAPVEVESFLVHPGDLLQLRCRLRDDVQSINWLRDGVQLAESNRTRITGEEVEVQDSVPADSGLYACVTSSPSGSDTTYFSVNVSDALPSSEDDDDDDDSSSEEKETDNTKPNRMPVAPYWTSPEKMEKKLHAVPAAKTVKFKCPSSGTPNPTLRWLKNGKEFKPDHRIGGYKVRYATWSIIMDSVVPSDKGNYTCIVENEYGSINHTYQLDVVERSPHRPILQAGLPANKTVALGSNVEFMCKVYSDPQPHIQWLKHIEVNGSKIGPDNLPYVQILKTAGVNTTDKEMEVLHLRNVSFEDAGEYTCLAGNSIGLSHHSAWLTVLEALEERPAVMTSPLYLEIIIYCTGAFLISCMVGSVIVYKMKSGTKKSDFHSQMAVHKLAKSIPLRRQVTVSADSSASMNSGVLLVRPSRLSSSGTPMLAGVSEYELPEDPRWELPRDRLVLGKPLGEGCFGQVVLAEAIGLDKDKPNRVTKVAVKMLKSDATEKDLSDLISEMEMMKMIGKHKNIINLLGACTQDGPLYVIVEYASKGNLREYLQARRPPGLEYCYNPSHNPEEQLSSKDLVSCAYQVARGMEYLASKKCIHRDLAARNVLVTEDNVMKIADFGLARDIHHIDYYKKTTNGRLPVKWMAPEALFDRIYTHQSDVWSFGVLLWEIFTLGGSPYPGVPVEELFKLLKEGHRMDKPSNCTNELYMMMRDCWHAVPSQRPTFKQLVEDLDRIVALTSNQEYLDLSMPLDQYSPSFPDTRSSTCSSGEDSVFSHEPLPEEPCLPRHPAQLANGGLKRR

Fes = Fes (UniProt P07332); assay: as above
Sequence of Fes (P07332 whole entry, looked up): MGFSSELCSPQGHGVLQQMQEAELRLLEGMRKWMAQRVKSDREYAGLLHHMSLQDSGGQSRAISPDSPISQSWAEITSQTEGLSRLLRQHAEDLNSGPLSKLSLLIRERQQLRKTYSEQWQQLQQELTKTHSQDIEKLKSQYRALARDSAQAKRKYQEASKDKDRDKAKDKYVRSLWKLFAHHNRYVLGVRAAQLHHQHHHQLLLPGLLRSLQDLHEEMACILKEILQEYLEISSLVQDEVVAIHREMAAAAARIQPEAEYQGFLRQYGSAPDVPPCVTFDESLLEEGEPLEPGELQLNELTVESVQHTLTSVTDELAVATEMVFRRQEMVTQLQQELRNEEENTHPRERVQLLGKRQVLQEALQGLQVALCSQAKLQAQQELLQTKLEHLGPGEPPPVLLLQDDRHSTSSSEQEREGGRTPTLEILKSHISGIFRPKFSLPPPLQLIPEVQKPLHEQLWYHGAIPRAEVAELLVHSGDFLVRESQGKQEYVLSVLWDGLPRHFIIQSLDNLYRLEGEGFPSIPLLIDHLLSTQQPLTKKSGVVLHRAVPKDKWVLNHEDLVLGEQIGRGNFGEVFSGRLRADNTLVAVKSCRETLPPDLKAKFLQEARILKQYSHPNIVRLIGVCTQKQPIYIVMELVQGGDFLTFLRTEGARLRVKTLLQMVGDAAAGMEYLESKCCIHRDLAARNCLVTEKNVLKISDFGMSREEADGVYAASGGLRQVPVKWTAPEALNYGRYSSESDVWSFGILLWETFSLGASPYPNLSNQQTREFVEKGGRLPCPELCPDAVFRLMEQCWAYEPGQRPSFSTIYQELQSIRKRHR

c-Abl (mouse) = assay: as above
EPHB2 = EPHB2 (UniProt P29323); assay: as above
Fer (mouse) = assay: as above
EPHB1 = EPHB1 (UniProt P54762); assay: as above
Sequence of EPHB1 (P54762 whole entry, looked up): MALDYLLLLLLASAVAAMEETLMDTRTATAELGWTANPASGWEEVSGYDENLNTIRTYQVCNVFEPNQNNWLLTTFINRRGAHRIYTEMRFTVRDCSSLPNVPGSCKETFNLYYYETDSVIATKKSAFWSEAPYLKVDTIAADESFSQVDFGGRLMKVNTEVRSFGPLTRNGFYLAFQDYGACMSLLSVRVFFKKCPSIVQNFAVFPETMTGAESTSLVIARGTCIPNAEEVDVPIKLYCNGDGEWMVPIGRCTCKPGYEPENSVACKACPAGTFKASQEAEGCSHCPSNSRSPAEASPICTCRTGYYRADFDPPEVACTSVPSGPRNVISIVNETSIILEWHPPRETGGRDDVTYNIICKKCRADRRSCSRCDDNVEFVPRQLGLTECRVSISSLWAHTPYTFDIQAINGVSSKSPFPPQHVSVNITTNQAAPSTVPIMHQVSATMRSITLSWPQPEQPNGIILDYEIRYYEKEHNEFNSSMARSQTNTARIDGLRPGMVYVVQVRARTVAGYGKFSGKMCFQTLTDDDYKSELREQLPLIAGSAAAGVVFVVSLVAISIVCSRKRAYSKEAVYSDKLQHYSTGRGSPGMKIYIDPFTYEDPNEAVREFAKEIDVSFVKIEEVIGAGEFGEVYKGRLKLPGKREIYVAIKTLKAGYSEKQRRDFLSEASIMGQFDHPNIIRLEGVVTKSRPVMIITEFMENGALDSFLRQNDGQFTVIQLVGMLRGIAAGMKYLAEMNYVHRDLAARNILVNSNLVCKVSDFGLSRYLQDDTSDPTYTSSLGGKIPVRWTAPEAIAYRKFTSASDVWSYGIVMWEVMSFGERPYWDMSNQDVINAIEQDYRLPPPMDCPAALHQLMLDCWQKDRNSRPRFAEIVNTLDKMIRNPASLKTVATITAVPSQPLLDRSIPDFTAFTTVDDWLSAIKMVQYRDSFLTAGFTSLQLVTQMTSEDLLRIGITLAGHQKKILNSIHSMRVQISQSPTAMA

c-Src = assay: as above
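For SH2 binding enrichment of the phosphorylated peptide, bacterial display in this document: peptide library displayed on the E. coli surface as eCPX fusions, selected cells deep-sequenced, score is each peptide's frequency after selection divided by its frequency in the input.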
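For phosphorylation enrichment, bacterial display in this document: 11-residue human phosphosite peptides and single-mutation variants displayed on the E. coli surface, counted by deep sequencing, each peptide's frequency after selection divided by its frequency in the unselected input library; frequency after pTyr selection over input frequency; kinase dosed for 20-30% of maximal phosphorylation in three min.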

Row | SH2 binding enrichment (c-Src SH2) | SH2 binding enrichment (Grb2 SH2) | SH2 binding enrichment (SHP2-C SH2) | Sequence | phosphorylation enrichment (MERTK) | phosphorylation enrichment (AncSZ) | phosphorylation enrichment (Jak2) | phosphorylation enrichment (FGFR3) | phosphorylation enrichment (Hck) | phosphorylation enrichment (Fyn) | phosphorylation enrichment (FGFR1) | phosphorylation enrichment (Fes) | phosphorylation enrichment (c-Abl (mouse)) | phosphorylation enrichment (EPHB2) | phosphorylation enrichment (Fer (mouse)) | phosphorylation enrichment (EPHB1) | phosphorylation enrichment (c-Src)
1 | 0.42 | 0.54 | 0.725 | LIHTKYPQLLP [AHCY_Y143] | 0.6 | 0.808 | 0.679 | 0.573 | 0.428 | 0.449 | 0.639 | 0.81 | 0.575 | 0.562 | 0.395 | 0.642 | 0.379
2 | 0.845 | 0.879 | 1.26 | LITILYIGFLG [KCNQ1_Y267_T265I] | 1.43 | 2.28 | 2.73 | 1.31 | 1.08 | 0.809 | 0.72 | 2.55 | 2.13 | 1.18 | 0.895 | 0.835 | 1.24
3 | 0.698 | 1.13 | 0.96 | LITTLYIDFLG [KCNQ1_Y267_G269D] | 0.704 | 1.42 | 1.39 | 1.19 | 0.818 | 1.41 | 1.09 | 1.96 | 1.07 | 1.06 | 0.749 | 1.15 | 1.22
4 | 0.478 | 0.708 | 0.501 | LKDEDYLKDTV [HAUS3_Y582_I586T] | 1.04 | 3.63 | 2.34 | 1.63 | 1.67 | 1.99 | 1.88 | 3.04 | 1.37 | 1.67 | 0.928 | 1.7 | 0.838
5 | 0.555 | 0.883 | 0.729 | LKEIRYPPYTD [ALDH3B2_Y362_H361R] | 0.518 | 0.761 | 0.827 | 0.702 | 0.678 | 0.31 | 0.539 | 1.06 | 0.749 | 0.589 | 0.541 | 0.348 | 0.494
6 | 0.529 | 0.952 | 0.812 | LKGQVYILGGE [ASS1_Y359_R363G] | 1.05 | 1.33 | 1.62 | 1.28 | 0.824 | 0.995 | 1.06 | 1.93 | 1.32 | 1.07 | 1.02 | 1.13 | 1.13
7 | 0.69 | 10.3 | 1.4 | LKKLEYLNLPL [LRRC6_Y70_A74P] | 0.423 | 0.818 | 0.694 | 1.12 | 0.518 | 0.364 | 1.26 | 0.741 | 0.622 | 0.441 | 0.47 | 0.531 | 0.374
8 | 0.544 | 0.832 | 0.523 | LKSEMYQKLLK [RGS13_Y146] | 0.348 | 1.34 | 0.92 | 0.845 | 0.78 | 0.56 | 0.749 | 1.18 | 0.733 | 0.925 | 0.456 | 0.709 | 0.425
9 | 0.508 | 0.63 | 0.882 | LLAGLYRGQAL [FGFR4_Y390] | 0.553 | 0.857 | 0.72 | 0.526 | 0.571 | 0.494 | 0.459 | 0.833 | 0.591 | 0.594 | 0.683 | 0.433 | 0.452
10 | 0.6 | 1.08 | 0.462 | LLDGEYFTLQI [TP53_Y327_P322L] | 1.28 | 5.89 | 8.38 | 8.15 | 2.24 | 3.2 | 10.9 | 5.59 | 3.69 | 1.49 | 1.99 | 1.95 | 7.23
11 | 1.49 | 1.83 | 1.28 | LLIVEYAKYGS [RET_Y806] | 0.75 | 1.52 | 1.82 | 0.942 | 0.759 | 0.622 | 0.804 | 2.4 | 1.03 | 0.872 | 0.868 | 1.12 | 1.23
12 | 1.16 | 0.856 | 0.827 | LLNPRYNLPLD [TOM1L1_Y109] | 1.16 | 1.14 | 0.83 | 0.767 | 0.741 | 0.63 | 0.645 | 0.952 | 1.32 | 0.822 | 0.62 | 0.54 | 0.59
13 | 0.434 | 0.932 | 0.518 | LLSVAYKNVVG [YWHAG_Y49] | 0.454 | 1.02 | 0.649 | 0.709 | 0.665 | 0.585 | 0.589 | 0.935 | 1.05 | 0.64 | 0.551 | 0.645 | 0.418
14 | 2.53 | 21.1 | 2.77 | LLSVAYQNVVG [YWHAG_Y49_K50Q] | 0.519 | 1.23 | 1.22 | 1.08 | 0.632 | 0.757 | 1.34 | 1.25 | 0.832 | 1.07 | 0.83 | 1.19 | 0.443
15 | 1.29 | 1.63 | 1.61 | LLVVLYKYRCF [PSEN1_Y154_Y159F] | 0.626 | 1.32 | 2.16 | 1.12 | 0.825 | 0.762 | 1.11 | 2.42 | 2.02 | 1.03 | 0.911 | 1.23 | 0.523
16 | 0.644 | 0.725 | 0.53 | LQEQNYLAVDS [FAM114A1_Y115] | 1.17 | 2.1 | 1.39 | 3.19 | 0.946 | 1.47 | 3.67 | 2.5 | 0.817 | 2.83 | 4.67 | 6.07 | 0.673
17 | 0.661 | 0.884 | 1.06 | LQIPMYEVQWK [KIT_Y553_K550I] | 7.37 | 2.5 | 0.721 | 0.848 | 2.24 | 2.45 | 1.14 | 2.04 | 1.01 | 24.1 | 2.54 | 22.6 | 1.55
